Measured values as given in PMC8547449, “Streptococcus pyogenes Forms Serotype- and Local Environment-Dependent Interspecies Protein Complexes” (mSystems, 2021).

Biological target: T1, C4b-binding protein (human, UniProt P04003 49-597; P20851 18-252)
T1 construct: In the AP-MS experiments it was followed by its alpha chain (C4BPA); also called C4BP; C4BPα; source: endogenous, pooled human plasma (AP-MS); bought: Complement Technology, purified human complement C4BP, catalog A109 (SPR, TX-MS, HDX-MS); copies: 7 +
T1 sequence (looked up) 1: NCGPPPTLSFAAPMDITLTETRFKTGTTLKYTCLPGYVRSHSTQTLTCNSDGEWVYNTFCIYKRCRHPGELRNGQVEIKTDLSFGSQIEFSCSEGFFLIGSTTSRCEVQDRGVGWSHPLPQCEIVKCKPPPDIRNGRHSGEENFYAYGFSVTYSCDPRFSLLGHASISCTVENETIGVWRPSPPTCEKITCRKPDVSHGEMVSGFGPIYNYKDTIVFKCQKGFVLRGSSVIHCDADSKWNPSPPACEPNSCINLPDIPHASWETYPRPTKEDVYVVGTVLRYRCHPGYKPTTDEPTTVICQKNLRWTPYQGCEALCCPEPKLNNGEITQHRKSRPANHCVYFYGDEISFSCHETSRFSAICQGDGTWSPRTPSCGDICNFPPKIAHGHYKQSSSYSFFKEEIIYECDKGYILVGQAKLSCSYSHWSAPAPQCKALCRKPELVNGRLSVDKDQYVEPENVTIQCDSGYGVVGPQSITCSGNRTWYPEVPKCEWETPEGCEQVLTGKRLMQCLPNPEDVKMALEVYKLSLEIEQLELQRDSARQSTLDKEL
T1 sequence (looked up) 2: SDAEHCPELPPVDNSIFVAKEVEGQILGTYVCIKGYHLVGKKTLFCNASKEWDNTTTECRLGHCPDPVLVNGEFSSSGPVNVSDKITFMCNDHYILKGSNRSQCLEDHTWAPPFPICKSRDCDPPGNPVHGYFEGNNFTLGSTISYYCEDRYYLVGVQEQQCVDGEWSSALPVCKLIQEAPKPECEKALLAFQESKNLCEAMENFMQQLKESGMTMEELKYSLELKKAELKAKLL
Test: cross-linking; TX-MS: 10 μg C4BP or 10 μg IgA Fc with 10 μg untagged M28 in 100 μl PBS, 37°C, DSS-H12/D12 at 0 to 2,000 μM for 60 min; cross-linked peptides by DDA-MS
Details: both partners purified

B1: M28 protein, recombinant, affinity tag removed by TEV protease (natural protein)
chain: AESPKSTETSANGADKLADAYNTLLTEHEKLRDEYYTLIDAKEEEPRYKALRGENQDLREKEGKYQDKIKKLEEKEKNLEKKSEDVERHYLKKLDQEHKEQEERQKNLEELERQSQREIDKRYQEQLQKQQQLETEKQISEASRKSLSRDLEASRAAKKDLEAEHQKLKEEKQISDASRQGLSRDLEASRAAKKDLEAEHQKLKEEKQISDASRQGLSRDLEASREAKKKVEADLAEANSKLQALEKLNKELEEGKKLSEKEKAELQARLEAEAKALKEQLAKQAEELAKLKGNQTPNAKVAPQANRSRSAMTQQKR
notes: M protein of S. pyogenes serotype M28, mature, without the signal peptide and the LPXTG cell wall-anchoring motif, aa 42 to 358; Used for SPR, TX-MS and HDX-MS; also called untagged M28; TEV-cleaved M28; source: E. coli Tuner(DE3), purified (HisTrap, TEV digestion, HisTrap, Superdex 200)
binding result: binds
